Experimental findings from patent US20190336544A1 are described below.

The target in experiment [1] is IgG (coating control in the ELISA binding assays). The experiment can be described thus: ELISA; IgG coated, culture supernatant.
For experiment [2], the target named is T1, mouseCD47, coated on ELISA plates (mouse) (UniProt Q61735).
T1 sequence (looked up): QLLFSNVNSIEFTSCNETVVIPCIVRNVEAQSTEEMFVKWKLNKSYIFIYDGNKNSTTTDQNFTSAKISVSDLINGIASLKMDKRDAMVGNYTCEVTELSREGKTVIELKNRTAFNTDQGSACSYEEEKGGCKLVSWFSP
The experiment can be described thus: ELISA; mCD47 coated, culture supernatant.

B1: secreted anti-mCD47 scFv (αmCD47scFv-V5-HIS, SYN3161) (scFv, from a related filing)
scFv: QVKLLQSGAALVKPGASVKMSCQASGYSFTDYWVTWVKQSHGQSLEWIGEIYPSNTVTNFNDNFKGKATLTVDKSTSTAYMELSRLTSEDSAIYYCTRIGNSGYRVGWFIYWGQGTLVTVLSGGGGSGGGGSGGGGSDTVLTQSPALAVSPGERVTISCKASESVSSHMHWYQQKPGQQPKLLIYKASNLASGVPARFSGSGSGTDFTLTIDPVEADDTATYFCQQGWNGPFTFGAGTRLELKRADAAGSGELGGSGKPIPNPLLGLDSTGSGHHHHHH
As to B1, the ELISA signal (quantity not given) was found to be 0.067 in experiment [1] and 0.527 in experiment [2].
